According to patent publication US20150148405A1 (Johns Hopkins, published 2015):

Biological target: ribosomal protein S6 (RPS6) (mouse, UniProt P62754 1-249)
Assay: co-immunoprecipitation with GW182 antiserum from hippocampal neuron lysates, immunoblot
Protocol: Proteins and mRNAs associated with P-body component GW182 were isolated through immunoprecipitation of GW182 by modification of previously published protocols (Keene et al., 2006; Moser et al., 2009). Primary cultures of mouse hippocampal neurons (DIV 14-15) were incubated in serum-reduced medium (0.5% B27 supplement) for 2 hours, followed by […] Actinomycin-D for […] and mock or BDNF-stimulation for 30˜60 min. Cell lysates were harvested in polysomal lysis buffer (100 mM KCl, 5 mM MgCl₂, 10 mM HEPES pH 7.0, 0.5% NP-40) with protease inhibitor cocktail and freshly added 20 mM EDTA, 1 mM DTT, 100 U/mL RNase inhibitor (RNaseOut, Invitrogen) and 400 μM Vanadyl ribonucleoside complexes (SIGMA). Lysates were centrifuged and the supernatants pre-cleared by one-hour incubation with recombinant protein G beads pre-washed in NT2 buffer (50 mM Tris-HCl pH 7.4, 150 mM NaCl, 1 mM MgCl₂, 0.05% NP-40). Antibody coating of protein G beads was carried out with antiserum against GW182 (18033, gift of M. Fritzler) or control isotype-specific serum in NT2 buffer plus protease inhibitor for 4 hours after blocking with NT2 buffer plus 5% BSA and 1 mg/mL heparin for 1 hour. For immunoprecipitation (IP), equal amounts of lysate protein (2-5 mg) was incubated with antibody-coated beads and tumbled for 4 hours at 4° C., followed by washing. […]

- binding result: no binding
B1: GW182 (other)
chain: MRELEAKATKDVERNLSRDLVQEEEQLMEEKKKKKDDKKKKEAAQKKATEQKIKVPEQIKPSVSQPQPANSDNGTSTATSTNNNAKRATASNQQPPPPQQQQPQQEQQQQQPQALPRYPREVPPRFRHQEHKQLLKRGQHFPVIAANLGSAVKVLNSQSESSAVTNQQPQNNGEVQNSKSQSDINHNTSGSHYENCQRGPVSSTSDCSTSCKNAVNDLLEKEAWPSAPGSDPELAPECIDADSASNSESERNITVMASGNTGGEKDGLRNSTGLGSQSKFVVGSSSNNVGHGSSTGPWGFPHGALISTCQVSVDAPESKPESSNNRMNAWGTVSSSSNGGLNPSTLNSASNHGAWPVLENNGLALKGPVGSGSSGINIQCSTIGQMPNNQNINSKVSGSSTHGTWGSLQETCEPEVSGTQKVSFSGQPQNITTETTGPNNTTNFMTSSLPNSGSVQNNELPTSNPGAWRVSTMNHPQIQAPSVMNGTSLSHLSNGESKTGGSYGTTWGAYGSNYSGDKCAGPNGQANGDTVNATLMQPGINGPMGTNFQVNTNKGGGVWEPGTVNSQSSPWGSGNGANSGGSRRGWGSPAQNTGTGLSSVEWNKLPSNQHSNDSANGNGKKLTNGWKSTEEDDQGSATSQTNEQNSVWAKAGGTVESDGSAESTGRLEEKVTGESQSRDRRKIDQHTLLQSIVNRTDLDPRVLSNSGWGQTPIKQNTAWDTETSPRGERKTDNGTEAWGSSATQTFNSGACTDKTSPNSNDTSSVSGWGDPKPTLRWGDSKGSNCQGGWEDDSAATGMIKSNQWGGCKEDKSTWNDSQKSKQGWGDGQKSSQGWSISAGDNWGESSRSNHWGEANKKSSSGGSDSDRSISGWNELGKTSSFTWGNNINPNNSSGWDESSKPNSSQGWGDPPKCNQSLGWGDSSKPVSSPDWNKQQDIVGSWGIPPATSKPPGTGWLGGPIPAPAKEEEPTGWEEPSPESIRRKMEIDDGTSAWGDPSKYNYKNVNMWNKNIPEASGRSDQQAQMHRLLPAASAVSSKETSSGSGWGEPWAEPSTPATTVDNGTSAWGKPIDSGPSWGEPITAASNASTWGSSSVGPQSLSKSGPKSMQDGWCGDDMPLPGSRPTGWEEEEDVEIGMWNSNSSQELNSSLNWPPYTKKMSSKGLSGKKRRRERGMMKGGNKQEDAWINPFVKQFSNISFSRDSPEENVQSNKMDLSGGMLQDKRMEIDKHSLNIGDYNRTVGKGPGSRPQISKESSMERNPYFDKNGNPNMFGVGNTAAQPRGMQQPPAQPLSSSQPNLRAQVPPPLLSPQVPVSLLKYAPNNGGLNPLFGPQQVAMLNQLSQLNQLSQISQLQRLLAQQQRAQSQRSAPSANRQQQDQQGRPLSVQQQMMQQSRQLDPSLLVKQQTPPSQQPLHQPAMKSFLDNVMPHTTPELQKGPSPVNAFSNFPIGLNSNLNVNMDMNSIKEPQSRLRKWTTVDSMSVNTSLDQNSSKHGAISSGFRLEESPFVPYDFMNSSTSPASPPGSIGDGWPRAKSPNGSSSVNWPPEFRPGEPWKGYPNIDPETDPYVTPGSVINSLSINTVREVDHLRDRNSGSSSSLNTTLPSTSAWSSIRASNYNVPLSSTAQSTSARNSDSKLTWSPGSVTNTSLAHELWKVPLPPKNITAPSRPPPGLTGQKPPLSTWDNSPLRVGGGWGNSDARYTPGSSWGESSSGRITNWLVLKNLTPQIDGSTLRTLCMQHGPLITFHLNLPHGNALVRYSSKEEVVKAQKSLHMCVLGNTTILAEFASEEEISRFFAQSQSLTPSPGWQSLGSSQSRLGSLDCSHSFSSRTDVNHWNGAGLSGANCGDLHGTSLWGTPHYSTSLWGPPSSDPRGISSPSPINAFLSVDHLGGGGESM
notes: Endogenous protein pulled down from neuronal lysate with GW182 antiserum 18033 (gift of M. Fritzler) on protein G beads; also called TNRC6a; P-body component GW182
